Target: cell-bound C4b (on EAC4 or EAC14 cells) (human) (UniProt P0C0L4)
Test: radioligand binding

Ka [M⁻¹] | percent of 125I-C4-bp incorporated into the cells [%] | percent of bound C4-bp released in the absence of C2 [%] | stoichiometry N (C4-bp molecules bound per C4b molecule) | maximum percent of bound 125I-C4-bp released by C2 [%] | Binder
4.6e+08 | 10.5 | 8 | 0.43 | – | radiolabelled C4-binding protein (125I-C4-bp or 131I-C4-bp) (natural protein, 125I or 131I label (iodinated by means of Enzymobeads)) NCGPPPTLSFAAPMDITLTETRFKTGTTLKYTCLPGYVRSHSTQTLTCNSDGEWVYNTFCIYKRCRHPGELRNGQVEIKTDLSFGSQIEFSCSEGFFLIGSTTSRCEVQDRGVGWSHPLPQCEIVKCKPPPDIRNGRHSGEENFYAYGFSVTYSCDPRFSLLGHASISCTVENETIGVWRPSPPTCEKITCRKPDVSHGEMVSGFGPIYNYKDTIVFKCQKGFVLRGSSVIHCDADSKWNPSPPACEPNSCINLPDIPHASWETYPRPTKEDVYVVGTVLRYRCHPGYKPTTDEPTTVICQKNLRWTPYQGCEALCCPEPKLNNGEITQHRKSRPANHCVYFYGDEISFSCHETSRFSAICQGDGTWSPRTPSCGDICNFPPKIAHGHYKQSSSYSFFKEEIIYECDKGYILVGQAKLSCSYSHWSAPAPQCKALCRKPELVNGRLSVDKDQYVEPENVTIQCDSGYGVVGPQSITCSGNRTWYPEVPKCEWETPEGCEQVLTGKRLMQCLPNPEDVKMALEVYKLSLEIEQLELQRDSARQSTLDKEL
– | – | – | – | 50 | C2 (natural protein) APSCPQNVNISGGTFTLSHGWAPGSLLTYSCPQGLYPSPASRLCKSSGQWQTPGATRSLSKAVCKPVRCPAPVSFENGIYTPRLGSYPVGGNVSFECEDGFILRGSPVRQCRPNGMWDGETAVCDNGAGHCPNPGISLGAVRTGFRFGHGDKVRYRCSSNLVLTGSSERECQGNGVWSGTEPICRQPYSYDFPEDVAPALGTSFSHMLGATNPTQKTKESLGRKIQIQRSGHLNLYLLLDCSQSVSENDFLIFKESASLMVDRIFSFEINVSVAIITFASEPKVLMSVLNDNSRDMTEVISSLENANYKDHENGTGTNTYAALNSVYLMMNNQMRLLGMETMAWQEIRHAIILLTDGKSNMGGSPKTAVDHIREILNINQKRNDYLDIYAIGVGKLDVDWRELNELGSKKDGERHAFILQDTKALHQVFEHMLDVSKLTDTICGVGNMSANASDQERTPWHVTIKPKSQETCRGALISDQWVLTAAHCFRDGNDHSLWRVNVGDPKSQWGKEFLIEKAVISPGFDVFAKKNQGILEFYGDDIALLKLAQKVKMSTHARPICLPCTMEANLALRRPQGSTCRDHENELLNKQSVPAHFVALNGSKLNINLKMGVEWTSCAEVVSQEKTMFPNLTDVREVVTDQFLCSGTQEDESPCKGESGGAVFLERRFRFFQVGLVSWGLYNPCLGSADKNSRKRAPRSKVPPPRDFHINLFRMQPWLRQHLGDVLNFLPL
